Measured values: US20130247232A1 (PRECISION BIOLOGICS, published 2013)
Ends that are not written are not given here.

T1: MUC5AC truncation construct 1-136 (human, UniProt P98088 3212-4055)
T1 sequence: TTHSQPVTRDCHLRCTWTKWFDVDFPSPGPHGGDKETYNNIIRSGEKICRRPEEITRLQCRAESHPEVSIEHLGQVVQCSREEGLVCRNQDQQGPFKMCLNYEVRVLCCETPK

T2: MUC5AC truncation construct 1-85 (human, UniProt P98088 1734-1794)
T2 chain: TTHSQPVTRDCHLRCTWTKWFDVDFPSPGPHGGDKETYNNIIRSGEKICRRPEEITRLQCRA

B1: NEO-101 antibody (chimeric) (antibody, V domains shown)
VH: QVQLKESGPDLVAPSQSLSITCTVSGFSLSKFGVNWVRQPPGKGLEWLGVIWGDGSTSYNSGLISRLSISKENSKSQVFLKLNSLQADDTATYYCVKPGGDYWGHGTSVTVSS
VL: QVVLTQSPVIMSASPGEKVTMTCSASSSISYMYWYQQKPGTSPKRWIYDTSKLASGVPARFSGSGSGTSYSLTISNMEAGDAATYYCHQRDSYPWTFGGGTNLEIK
notes: Chimeric, murine variable regions with human constant regions; Used unlabeled, biotinylated, FITC-labeled or coupled to Dynal beads depending on the assay; also called NPC-1C; NPC-1-C

Key:
[1] = target: B1; assay: ELISA, biotinylated peptide on NEO-101 coated plate
Method: To solve the poor binding of peptides to 96 well plate, peptides were biotinylated using EZ-link micro NHS Biotinylation kit (Pierce Cat#21955), and labeling efficiency checked by dot blot (50%). […] The solution was blocked with 200 μl of 1% milk in TBS at RT for 20 min, Aliquots of 100 μl peptide-biotin (1 μg/ml) in 0.1% milk-TBS were added, and incubated at RT of 2 hr, followed by three washes with TBST. Streptavidin-HRP (100 μl of 1:2000 diluted in 1:10 diluted blocking buffer) was added, and the wells incubated at RT for 1 hr, followed by three washed. TMB was then added, and the wells were read at 450 nm. Positive controls for NPC-1C binding used 4B6-biotin. The results are shown in FIG. 11, which indicates biotinlyated peptides bind to NPC-1C coated plate.

[2] = target: T1, MUC5AC truncation construct 1-136; assay: immunofluorescence of transfected 293T cells
Method: (§1) Cells were transiently transfected with 2 μg of MUC5AC constructs of Table 8 with LIPOFECTAMINE®. Cells were grown for about 72 hours, fixed with about 4% PFA in PBS, washed with PBS, permeabilized with about 0.2% […] in PBS and washed with PBS. […] Cells were washed with PBS and second anti human-FITC antibody (1:500) was added to all wells and to the second antibody control wells. Cells were washed and mounted on slides with DAPI hard mount. Cover slides were allowed to sit over night at about 4° C. Slides were visualized with a Nikon Eclipse Ti microscope with an Andor camera. At least 3 random fields were counted per transfection.

[3] = target: T2, MUC5AC truncation construct 1-85; assay: immunofluorescence of transfected 293T cells
Method: as §1

[4] = target: B1; assay: competition: phage premixed with NEO-101-coupled beads, then rosetting of CFPAC1 cells
Method: The M13 clones identified by the biopanning were also immunoassayed using magnetic beads. […] CFPAC1 cells (30 μl of 10⁶cells/ml) were added and incubated at 4° C. for 30 min. Rosetted cells were counted (>8 beads/cell).

Row | Binder | Positive rosette cells (%) [4] [%] | also measured
1 | YSHSVHAIEDNWSPRGGGGS (also: biotinylated (position not given here), also called negative control) [synthetic peptide 4-1-3-C11 (control peptide)] |  | binding result [1]: no binding (tested: 1 µg/ml)
2 | B1 |  | binding result [2]: no binding (tested: about 2 µg/ml); binding result [3]: no binding (tested: about 2 µg/ml)
3 | M13 phage clone 4-1-2-C5 (other, Whole phage particle displaying the peptide on pIII) WHTLPEKSLDENGGGSAETVESCLAKPHTENSFTNVWKDDKTLDRYANYEGCLWNATGVVVCTGDETQCYGTWVPIGLAIPENEGGGSEGGGSEGGGSEGGGTKPPEYGDTPIPGYTYINPLDGTYPPGTEQNPANPNPSLEESQPLNTFMFQNNRFRNRQGALTVYTGTVTQGTDPVKTYYQYTPVSSKAMYDAYWNGKFRDCAFHSGFNEDPFVCEYQGQSSDLPQPPVNAGGGSGGGSGGGSEGGGSEGGGSEGGGSEGGGSGGGSGSGDFDYEKMANANKGAMTENADENALQSDAKGKLDSVATDYGAAIDGFIGDVSGLANGNGATGDFAGSNSQMAQVGDGDNSPLMNNFRQYLPSLPQSVECRPFVFSAGKPYEFSIDCDKINLFRGVFAFLLYVATFMYVFSTFANILRNKES | 0 | 
4 | M13 phage clone 4-1-3-C11 (other, Whole phage particle; its peptide served as the control peptide) VHAIEDNWSPRGGGGSAETVESCLAKPHTENSFTNVWKDDKTLDRYANYEGCLWNATGVVVCTGDETQCYGTWVPIGLAIPENEGGGSEGGGSEGGGSEGGGTKPPEYGDTPIPGYTYINPLDGTYPPGTEQNPANPNPSLEESQPLNTFMFQNNRFRNRQGALTVYTGTVTQGTDPVKTYYQYTPVSSKAMYDAYWNGKFRDCAFHSGFNEDPFVCEYQGQSSDLPQPPVNAGGGSGGGSGGGSEGGGSEGGGSEGGGSEGGGSGGGSGSGDFDYEKMANANKGAMTENADENALQSDAKGKLDSVATDYGAAIDGFIGDVSGLANGNGATGDFAGSNSQMAQVGDGDNSPLMNNFRQYLPSLPQSVECRPFVFSAGKPYEFSIDCDKINLFRGVFAFLLYVATFMYVFSTFANILRNKES | 38 | 
5 | M13 phage clone 4-1-3-C9 (other, Whole phage particle displaying the peptide on pIII) FPEDYFRYTNQKGGGSAETVESCLAKPHTENSFTNVWKDDKTLDRYANYEGCLWNATGVVVCTGDETQCYGTWVPIGLAIPENEGGGSEGGGSEGGGSEGGGTKPPEYGDTPIPGYTYINPLDGTYPPGTEQNPANPNPSLEESQPLNTFMFQNNRFRNRQGALTVYTGTVTQGTDPVKTYYQYTPVSSKAMYDAYWNGKFRDCAFHSGFNEDPFVCEYQGQSSDLPQPPVNAGGGSGGGSGGGSEGGGSEGGGSEGGGSEGGGSGGGSGSGDFDYEKMANANKGAMTENADENALQSDAKGKLDSVATDYGAAIDGFIGDVSGLANGNGATGDFAGSNSQMAQVGDGDNSPLMNNFRQYLPSLPQSVECRPFVFSAGKPYEFSIDCDKINLFRGVFAFLLYVATFMYVFSTFANILRNKES | 0 | 
6 | M13 phage clone 4-1-4-C12 (other, Whole phage particle displaying the peptide on pIII) SLPDDWFRYINYGGGSAETVESCLAKPHTENSFTNVWKDDKTLDRYANYEGCLWNATGVVVCTGDETQCYGTWVPIGLAIPENEGGGSEGGGSEGGGSEGGGTKPPEYGDTPIPGYTYINPLDGTYPPGTEQNPANPNPSLEESQPLNTFMFQNNRFRNRQGALTVYTGTVTQGTDPVKTYYQYTPVSSKAMYDAYWNGKFRDCAFHSGFNEDPFVCEYQGQSSDLPQPPVNAGGGSGGGSGGGSEGGGSEGGGSEGGGSEGGGSGGGSGSGDFDYEKMANANKGAMTENADENALQSDAKGKLDSVATDYGAAIDGFIGDVSGLANGNGATGDFAGSNSQMAQVGDGDNSPLMNNFRQYLPSLPQSVECRPFVFSAGKPYEFSIDCDKINLFRGVFAFLLYVATFMYVFSTFANILRNKES | 0 | 
7 | M13 phage clone 4-1-3-C8 (other, Whole phage particle displaying the peptide on pIII) WHTLPESGEVTSGGGSAETVESCLAKPHTENSFTNVWKDDKTLDRYANYEGCLWNATGVVVCTGDETQCYGTWVPIGLAIPENEGGGSEGGGSEGGGSEGGGTKPPEYGDTPIPGYTYINPLDGTYPPGTEQNPANPNPSLEESQPLNTFMFQNNRFRNRQGALTVYTGTVTQGTDPVKTYYQYTPVSSKAMYDAYWNGKFRDCAFHSGFNEDPFVCEYQGQSSDLPQPPVNAGGGSGGGSGGGSEGGGSEGGGSEGGGSEGGGSGGGSGSGDFDYEKMANANKGAMTENADENALQSDAKGKLDSVATDYGAAIDGFIGDVSGLANGNGATGDFAGSNSQMAQVGDGDNSPLMNNFRQYLPSLPQSVECRPFVFSAGKPYEFSIDCDKINLFRGVFAFLLYVATFMYVFSTFANILRNKES | 0 | 
